The values that follow come from the Immune Epitope Database (IEDB).

For one assay, the target named is HLA-A*25:01. The assay can be described thus: IEDB peptide-MHC binding, purified MHC/competitive/fluorescence; filed as Kd, often an IC50 or EC50 that approximates it; ≥ and ≤ were set here for values at or beyond the usual limits of such assays. As to conditions: source organism: Salmonella enterica subsp. enterica serovar Typhi.
Another assay addresses HLA-B*58:01. The description is as above. As to conditions: source organism: Salmonella enterica subsp. enterica serovar Typhi.
In another assay the target is HLA-B*44:02. The assay is described as above. As to conditions: source organism: Salmonella enterica subsp. enterica serovar Typhi.
A further assay concerns the target HLA-B*15:42. The assay is described as above. As to conditions: source organism: Salmonella enterica subsp. enterica serovar Typhi.
The target in a further assay is HLA-B*08:01. The assay is described as above. The conditions noted are these: source organism: Salmonella enterica subsp. enterica serovar Typhi.
A further assay deals with HLA-B*15:09. Described as above. As to conditions: source organism: Salmonella enterica subsp. enterica serovar Typhi.
For another assay, the target named is HLA-B*15:01. Described as above. The conditions noted are these: source organism: Salmonella enterica subsp. enterica serovar Typhi.
The next assay deals with HLA-C*06:02. Described as above. The conditions noted are these: source organism: Salmonella enterica subsp. enterica serovar Typhi.
For another assay, the target named is HLA-B*45:06. The assay is described as above. The conditions noted are these: source organism: Salmonella enterica subsp. enterica serovar Typhi.
For a further assay, the target named is HLA-A*30:01. The assay is described as above. The conditions noted are these: source organism: Salmonella enterica subsp. enterica serovar Typhi.
The next assay deals with HLA-A*03:01. Described as above. The conditions noted are these: source organism: Salmonella enterica subsp. enterica serovar Typhi.
The target of a further assay is HLA-B*38:01. The description is as above. As to conditions: source organism: Salmonella enterica subsp. enterica serovar Typhi.
The target in another assay is HLA-A*26:01. The description is as above. As to conditions: source organism: Salmonella enterica subsp. enterica serovar Typhi.
Another assay has as its target HLA-B*15:17. The assay is described as above. As to conditions: source organism: Salmonella enterica subsp. enterica serovar Typhi.
A further assay concerns the target HLA-A*03:19. The description is as above. As to conditions: source organism: Salmonella enterica subsp. enterica serovar Typhi.
A further assay addresses HLA-A*68:23. The description is as above. As to conditions: source organism: Salmonella enterica subsp. enterica serovar Typhi.
The target of the next assay is HLA-B*18:01. The description is as above. The conditions noted are these: source organism: Salmonella enterica subsp. enterica serovar Typhi.
The next assay addresses HLA-C*14:02. The assay is described as above. As to conditions: source organism: Salmonella enterica subsp. enterica serovar Typhi.
Another assay deals with HLA-A*02:03. The description is as above. As to conditions: source organism: Salmonella enterica subsp. enterica serovar Typhi.
The target of a further assay is HLA-A*31:01. The assay is described as above. The conditions noted are these: source organism: Salmonella enterica subsp. enterica serovar Typhi.
Another assay deals with HLA-A*02:01. The description is as above. As to conditions: source organism: Salmonella enterica subsp. enterica serovar Typhi.
In the next assay the target is HLA-A*29:02. The description is as above. As to conditions: source organism: Salmonella enterica subsp. enterica serovar Typhi.
In a further assay the target is HLA-B*40:01. Described as above. The conditions noted are these: source organism: Salmonella enterica subsp. enterica serovar Typhi.
The target of another assay is HLA-C*15:02. The assay can be described thus: IEDB peptide-MHC binding, purified MHC/direct/fluorescence; filed as Kd, often an IC50 or EC50 that approximates it; ≥ and ≤ were set here for values at or beyond the usual limits of such assays. The conditions noted are these: source organism: Salmonella enterica subsp. enterica serovar Typhi str. CT18.

One may read the Kd as the constant that tells how readily two partners part at equilibrium. A high value points to lower affinity. In the case of SVIDHIHYM, the Kd with HLA-A*25:01 was 13.7 nM; with HLA-B*58:01, 290 nM; in the assay with HLA-B*44:02, at least 20 µM; in the assay with HLA-B*15:42, at least 5 µM; with HLA-B*08:01, at least 20 µM; in the assay with HLA-B*15:09, at least 20 µM. The Kd was 145 nM with HLA-B*15:01; 26 nM with HLA-C*06:02; at least 5 µM with HLA-B*45:06; at least 20 µM in the assay with HLA-A*30:01; at least 20 µM in the assay with HLA-A*03:01; at least 20 µM in the assay with HLA-B*38:01. For the same sequence, the Kd with HLA-A*26:01 is 0.28 nM; with HLA-B*15:17 it was 50 nM; with HLA-A*03:19, 982 nM; with HLA-A*68:23, 0.2 nM; with HLA-B*18:01 it was at least 20 µM; in the assay with HLA-C*14:02, 38.4 nM. Also, the Kd in the assay with HLA-A*02:03 is 3.1 nM; with HLA-A*31:01, 231 nM; with HLA-A*02:01 it was 4.9 nM; in the assay with HLA-A*29:02, 1.2 nM; with HLA-B*40:01 it was at least 20 µM; in the assay with HLA-C*15:02 it was 95 nM.
